US20190256582A1
Like-named read-outs stand apart in the source and are kept apart here.

Experiments:
[1] = molecular target: T1, panel of four distinct ZIKV strains (H/PF/2013; MR766, MRS-OPY and PV10552); assay: cell-based or functional assay
[2] = molecular target: T1, panel of four distinct ZIKV strains …; assay: cell-based or functional assay; remark: listed apart in the source

B1: ZKA190 (antibody, V domains shown)
VH: QVQLVESGGGVVQPGRSLRLSCAASGFTFSKYGMHWVRQAPGKGLEWVAVISYEGSNKYYADSVKGRFTISRDNSKNTLYLQMNSLRAEDTAVYYCAKSGTQYYDTTGYEYRGLEYFGYWGQGTLVTVSS
VL: EIVLTQSPGTLSLSPGERATLSCRASQSVSSSYLAWYQQKRGQAPRLLIYDASSRATGIPDRFSGSGSGTDFTLTISRLEPEDFAVYYCQQYGRSRWTFGQGTKVEIK
ZIKV neutralization IC50 (four strains, Vero cells, flow cytometry) [1]: 0.6 to 8 ng/mL | ZIKV neutralization IC50 (four strains, Vero cells, flow cytometry) [2]: 0.004 to 0.05 nM
